In paper PMC10981688, “PCSK9 stimulates Syk, PKCδ, and NF-κB, leading to atherosclerosis progression independently of LDL receptor” (Nature Communications, 2024):
Each block holds one binder with its values, some of them ahead of it.

Tests used:
Settings in all cases: both partners purified
[1] = molecular target: T1, recombinant human PCSK9 with 6x His tag (proprotein convertase subtilisin/kexin type-9) (human, UniProt Q8NBP7 31-692); assay: BLI; BLItz system; PCSK9-His (hPCSK9, 500 nM, 120 s loading) immobilised on an anti-Penta-HIS sensor; association 120 s, dissociation 120 s; sensorgrams fit globally to a 1:1 binding model
T1 construct: proprotein convertase subtilisin/kexin type-9 (PCSK9), human, recombinant; written here as one chain; also called rhPCSK9-His; PCSK9-His

[2] = molecular target: T2, recombinant human Syk (spleen tyrosine kinase) (human, UniProt P43405 1-635); assay: BLI; BLItz system; CAP1-mFc immobilised on an anti-mouse IgG Fc (AMC) sensor; Syk or PKCδ in the association step (120 s), dissociation 120 s; global 1:1 binding model
T2 construct: spleen tyrosine kinase (Syk), human, recombinant; also called rhSyk; source: bought: Abcam (ab60886)

[3] = molecular target: T3, recombinant human PKCδ (protein kinase C delta) (human, UniProt Q05655 1-676); assay: as above
T3 construct: protein kinase C delta (PKCδ), human, recombinant; also called rhPKCδ; source: bought: Abcam (ab60844)
T3 sequence (Q05655 whole entry, stated change not applied): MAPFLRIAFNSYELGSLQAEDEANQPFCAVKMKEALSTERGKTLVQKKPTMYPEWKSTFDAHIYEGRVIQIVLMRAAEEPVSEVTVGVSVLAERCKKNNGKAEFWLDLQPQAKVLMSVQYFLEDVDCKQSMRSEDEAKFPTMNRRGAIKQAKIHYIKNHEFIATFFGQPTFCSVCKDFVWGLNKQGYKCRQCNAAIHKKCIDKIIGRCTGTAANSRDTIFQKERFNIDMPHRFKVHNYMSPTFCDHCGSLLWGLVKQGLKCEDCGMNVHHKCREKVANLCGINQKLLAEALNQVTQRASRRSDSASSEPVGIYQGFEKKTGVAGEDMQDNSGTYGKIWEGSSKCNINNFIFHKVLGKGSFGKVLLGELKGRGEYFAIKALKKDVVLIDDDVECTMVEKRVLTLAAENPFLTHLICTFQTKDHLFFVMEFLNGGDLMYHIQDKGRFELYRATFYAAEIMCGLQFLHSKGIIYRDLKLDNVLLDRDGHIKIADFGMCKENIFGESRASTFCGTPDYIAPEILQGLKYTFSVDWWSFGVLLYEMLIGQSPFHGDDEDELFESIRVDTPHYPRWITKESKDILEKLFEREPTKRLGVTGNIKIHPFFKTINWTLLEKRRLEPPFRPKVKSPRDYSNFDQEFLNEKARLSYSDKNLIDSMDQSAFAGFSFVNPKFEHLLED

Kd [1]: 32 nM
B1: recombinant human CAP1 (adenylyl cyclase-associated protein 1) (natural protein, UniProt Q01518 1-475, looked up)
chain: MADMQNLVERLERAVGRLEAVSHTSDMHRGYADSPSKAGAAPYVQAFDSLLAGPVAEYLKISKEIGGDVQKHAEMVHTGLKLERALLVTASQCQQPAENKLSDLLAPISEQIKEVITFREKNRGSKLFNHLSAVSESIQALGWVAMAPKPGPYVKEMNDAAMFYTNRVLKEYKDVDKKHVDWVKAYLSIWTELQAYIKEFHTTGLAWSKTGPVAKELSGLPSGPSAGSCPPPPPPCPPPPPVSTISCSYESASRSSLFAQINQGESITHALKHVSDDMKTHKNPALKAQSGPVRSGPKPFSAPKPQTSPSPKRATKKEPAVLELEGKKWRVENQENVSNLVIEDTELKQVAYIYKCVNTTLQIKGKINSITVDNCKKLGLVFDDVVGIVEIINSKDVKVQVMGKVPTISINKTDGCHAYLSKNSLDCEIVSAKSSEMNVLIPTEGGDFNEFPVPEQFKTLWNGQKLVTTVTEIAG
notes: adenylyl cyclase-associated protein 1 (CAP1), human, recombinant; also called rhCAP1; hCAP1; source: bought: Abnova (H00010487-P01)

Kd [2]: 5.96 nM | Kd [3]: 322 nM
B2: human CAP1 whose carboxyl-terminal end was conjugated with the Fc region of mouse immunoglobulin (Fc fusion, UniProt Q01518 1-475, looked up)
chain: B1 chain
notes: adenylyl cyclase-associated protein 1 (CAP1), human; also called CAP1-mFc; hCAP1-mFc; source: Expi293F, transfected, purified to homogeneity; not shown: Fc (mouse immunoglobulin), C-terminal, kept
